In publication PMC5543122, “Structural basis of Notch O-glucosylation and O–xylosylation by mammalian protein–O-glucosyltransferase 1 (POGLUT1)” (Nature Communications, 2017):

Experiments:
[1] = biological target: human Protein O-glucosyltransferase 1 (POGLUT1), residues 29-385 (human) (UniProt Q8NBL1)
[2] = biological target: Drosophila Rumi, residues 39-406 (Drosophila) (UniProt Q8T045)
Sequence of UniProt Q8T045 (Q8T045 39-406): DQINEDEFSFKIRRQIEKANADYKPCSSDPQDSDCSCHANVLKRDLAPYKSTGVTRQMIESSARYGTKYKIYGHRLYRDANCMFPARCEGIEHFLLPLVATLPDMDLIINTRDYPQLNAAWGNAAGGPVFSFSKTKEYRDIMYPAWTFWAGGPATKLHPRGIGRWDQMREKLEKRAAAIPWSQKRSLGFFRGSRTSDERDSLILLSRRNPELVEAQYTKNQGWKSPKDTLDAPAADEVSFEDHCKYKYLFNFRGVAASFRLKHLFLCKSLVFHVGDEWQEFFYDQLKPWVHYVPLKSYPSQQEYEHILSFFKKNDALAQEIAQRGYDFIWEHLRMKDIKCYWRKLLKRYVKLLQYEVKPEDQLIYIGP

Sequence of UniProt Q8NBL1 (Q8NBL1 29-385): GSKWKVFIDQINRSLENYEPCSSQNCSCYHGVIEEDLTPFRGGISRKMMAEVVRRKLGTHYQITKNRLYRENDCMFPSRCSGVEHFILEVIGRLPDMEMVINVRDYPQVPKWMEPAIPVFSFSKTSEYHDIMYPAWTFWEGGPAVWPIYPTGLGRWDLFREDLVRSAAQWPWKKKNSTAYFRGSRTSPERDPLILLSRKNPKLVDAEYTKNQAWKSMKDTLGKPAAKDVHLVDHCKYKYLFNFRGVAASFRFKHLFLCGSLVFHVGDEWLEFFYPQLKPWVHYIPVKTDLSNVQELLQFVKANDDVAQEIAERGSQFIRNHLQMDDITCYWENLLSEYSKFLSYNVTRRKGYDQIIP

Row | Substance | K M of the EGF-like domain (MBP fusion) for glucosylation, 2.5 mM UDP-glucose, coupled spectrophotometric assay, 37 °C [1] [µM] | K M of the EGF-like domain (MBP fusion) for glucosylation, 2.5 mM UDP-glucose, coupled spectrophotometric assay, 37 °C [2] [µM]
1 | human Notch1 EGF-like domain 12 with a 4-residue C2C3 loop, MBP fusion (from UniProt P46531 452-488) (domain or fragment) | 155 | 160
2 | human Notch1 EGF-like domain 12 with a 6-residue C2C3 loop, MBP fusion (from UniProt P46531 452-488) (domain or fragment) | 1000 | 1000
3 | human Notch1 EGF-like domain 12 with a 7-residue C2C3 loop, MBP fusion (from UniProt P46531 452-488) (domain or fragment) | 1000 | 1000
